This note sets out measurements from paper PMC6768651, “A ubiquitin-like domain controls protein kinase D dimerization and activation by trans-autophosphorylation” (The Journal of Biological Chemistry, 2019).

The target of data set [1] is human PKD1 kinase domain (PKD1^CAT, residues 569–892) (human) (UniProt Q15139). Briefly: fluorescence polarisation; fluorescence anisotropy; 195 μM PKD1^CAT with 80 nM Atto488-labeled PKD1^CAT successively diluted with buffer containing 80 nM labeled protein; 50 mM Tris pH 7.5, 220 mM KCl, 1% glycerol, 1 mM TCEP; 20 °C; single binding model; dimer to monomers. On the technique in general: Polarisation of emitted light reports the rotation of a fluorescent probe.

Data set [2] has the same target. Briefly: SEC-MALS; PKD1^CAT, first run, 625 μg injected. (Size exclusion chromatography separates by hydrodynamic size, large species first.)
Data set [3] deals with the molecule itself. Kind of data set: SEC-MALS; Superdex 200 10/300; 20 mM Tris pH 7.5, 150 mM KCl, 1 mM TCEP; 50 μl of 2.5 mg/ml protein injected.
Data set [4] concerns the molecule itself. Briefly: fluorescence polarisation; fluorescence anisotropy; unlabeled PKD1 ULD (800 μM stock) titrated into 40 nM Atto488-labeled PKD1 ULD; 20 mM Tris pH 7.5, 150 mM KCl, 1 mM TCEP, 1% glycerol; 20 °C; single binding model; dimer to monomers.
Data set [5] addresses T1, Atto488-labeled DKF-1 ULD^R42C (C. elegans, UniProt Q9XUJ7 1-94, R42C, Atto488 (maleimide-conjugated) on cysteine 42).
T1 construct: C. elegans DKF-1, residues 1-94 (ubiquitin-like domain) with the surface-exposed arginine 42 mutated to cysteine; Labeling efficiency estimated at about 80%; also called Atto488-ULD^R42C; source: E. coli BL21*, purified in the same way as the WT counterpart, labelled with maleimide-Atto488; not shown: GST, N-terminal, cleaved
T1 sequence (looked up): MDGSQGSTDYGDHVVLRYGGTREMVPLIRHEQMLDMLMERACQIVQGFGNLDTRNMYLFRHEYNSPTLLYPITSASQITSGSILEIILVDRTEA
Briefly: fluorescence polarisation; fluorescence anisotropy; ULD or ULD^F59E (222 or 150 μM stock) titrated into 35–70 nM Atto488-ULD^R42C; 20 mM Tris pH 7.5, 150 mM KCl, 1% glycerol, 1 mM TCEP; 20 °C; single-site binding model; dimer to monomers. Conditions: both partners purified.

A word on the Kd: it is the concentration at which binding is half-saturated. Read a low Kd as tighter binding. A word on the stoichiometry N: it is a count of units in the complex or per binding partner. In data set [1], “human PKD1 kinase domain (PKD1^CAT, residues 569–892) (from UniProt Q15139 569-892) (domain or fragment)” returned a dissociation constant (Kd) of 50000 nM. Further, in data set [2], the stoichiometry N was 2.

B1: human PKD1 ULD (PKD1^48–143) (domain or fragment, UniProt Q15139 48-143, looked up)
chain: GISFHLQIGLSREPVLLLQDSSGDYSLAHVREMACSIVDQKFPECGFYGMYDKILLFRHDPTSENILQLVKAASDIQEGDLIEVVLSASATFEDFQ
notes: human protein kinase D1 (PKD1), residues 48-143 (ubiquitin-like domain); In the anisotropy titration 40 nM of the same protein carried Atto488 (maleimide) on its surface-exposed cysteines (labeling efficiency 50%); Addgene 31527 is the plasmid carrying the PKD1 gene; also called ULD of human PKD1; source: E. coli BL21*, purified (GSH beads, TEV cleavage on beads, SEC); not shown: GST, N-terminal, …
Regarding B1, the “stoichiometry N” value in data set [3] worked out at 2. The Kd in data set [4] amounted to 1700 ± 200 nM.

B2: DKF-1 ULD–C1a (DKF-1^1–151) (domain or fragment, C. elegans, UniProt Q9XUJ7 1-151, looked up)
chain: MDGSQGSTDYGDHVVLRYGGTREMVPLIRHEQMLDMLMERARQIVQGFGNLDTRNMYLFRHEYNSPTLLYPITSASQITSGSILEIILVDRTEAAVIPHVVEPESYMRPTFCDFCGEMLTGLMRQGVKCKNCNGNFHKRCSNAARNNCGAP
notes: C. elegans PKD homolog DKF-1, residues 1-151 (ubiquitin-like domain and C1a domain); The final crystallographic model comprises residues 12-151; also called PKD N terminus; source: E. coli BL21*, purified (GSH beads, TEV cleavage on beads, SEC); not shown: GST, N-terminal, cleaved
For B2, the “stoichiometry N” value in data set [3] was 2.

B3: human PKD3 ULD (PKD3^55–149) (domain or fragment, UniProt O94806 55-149, looked up)
chain: GSVHTVSFLLQIGLTRESVTIEAQELSLSAVKDLVCSIVYQKFPECGFFGMYDKILLFRHDMNSENILQLITSADEIHEGDLVEVVLSALATVED
notes: human protein kinase D3 (PKD3), residues 55-149 (ubiquitin-like domain); also called ULD of human PKD3; source: E. coli BL21*, purified (GSH beads, TEV cleavage on beads, SEC); not shown: GST, N-terminal, cleaved
B3: the “stoichiometry N” value in data set [3] worked out at 2.

B4: DKF-1 ULD (DKF-1^1–94) (domain or fragment, C. elegans, UniProt Q9XUJ7 1-94, looked up)
chain: MDGSQGSTDYGDHVVLRYGGTREMVPLIRHEQMLDMLMERARQIVQGFGNLDTRNMYLFRHEYNSPTLLYPITSASQITSGSILEIILVDRTEA
notes: C. elegans PKD homolog DKF-1, residues 1-94 (ubiquitin-like domain); also called ULD^WT; source: E. coli BL21*, purified (GSH beads, TEV cleavage on beads, SEC); not shown: GST, N-terminal, cleaved
For the molecule B4, the “stoichiometry N” value in data set [3] was determined as 2. In data set [5], this molecule registered a Kd of 650 ± 70 nM.
